Experimental data published in article PMC3491106 (Biochemistry, 2012).

T1: His6-EhFormin1 GBD-FH3 domain tandem (a.a. 69-418) (E. histolytica, UniProt C4M622 69-418)
T1 sequence (looked up): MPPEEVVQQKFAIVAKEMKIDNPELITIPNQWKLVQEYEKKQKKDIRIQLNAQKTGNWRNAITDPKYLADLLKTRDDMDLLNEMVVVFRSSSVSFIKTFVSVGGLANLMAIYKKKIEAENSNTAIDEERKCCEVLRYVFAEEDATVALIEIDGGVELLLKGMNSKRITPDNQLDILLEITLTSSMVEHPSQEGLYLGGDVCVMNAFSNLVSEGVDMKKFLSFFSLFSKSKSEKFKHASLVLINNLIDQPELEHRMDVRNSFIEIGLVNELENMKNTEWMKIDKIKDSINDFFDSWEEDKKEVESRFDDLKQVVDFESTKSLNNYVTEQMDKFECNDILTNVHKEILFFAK


What was measured:
[1] = biological target: T1, His6-EhFormin1 GBD-FH3 domain tandem …; assay: SPR
[2] = biological target: His6-EhFormin1 fusion (GBD-FH3 domain tandem, 40-residue linker, FH2-DAD fragment) (E. histolytica); assay: SPR

Binder | Kd [1] | Kd [2]
EhRho1·GTPγS (Entamoeba histolytica Rho1, wild type, loaded with GTPγS) (natural protein, E. histolytica) MLAFSDMNTGAGKIENGKKALKIVVVGDGAVGKTCLLLAFSKGEIPTAYVPTVFENFSHVMKYKNEEFILHLWDTAGQEEYDRLRPLSYADSDVVLLCFAVNNRTSFDNISTKWEPEIKHYIDTAKTVLVGLKVDLRKDGSDDVTKQEGDDLCQKLGCVAYIEASSVAKIGLNEVFEKSVDCIFSNKPVPK | ~3 µM | 3 µM
EhRho1 Arg83 to Gln mutant (natural protein) MLAFSDMNTGAGKIENGKKALKIVVVGDGAVGKTCLLLAFSKGEIPTAYVPTVFENFSHVMKYKNEEFILHLWDTAGQEEYDQLRPLSYADSDVVLLCFAVNNRTSFDNISTKWEPEIKHYIDTAKTVLVGLKVDLRKDGSDDVTKQEGDDLCQKLGCVAYIEASSVAKIGLNEVFEKSVDCIFSNKPVPK | > 100 µM | –
